Patent US20190092852A1
Positions count from the first letter of the chain named. Like-named read-outs stand apart in the source and are kept apart here.

T1: human IL-33 (R&D Systems, #3625-IL-010/CF) (human) (UniProt O95760)
T1 sequence (looked up): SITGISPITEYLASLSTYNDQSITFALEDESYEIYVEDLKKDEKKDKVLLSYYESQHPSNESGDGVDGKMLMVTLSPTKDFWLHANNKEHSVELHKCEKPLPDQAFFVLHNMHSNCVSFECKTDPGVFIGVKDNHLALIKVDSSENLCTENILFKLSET

T2: biotinylated human IL-33 (human) (UniProt O95760)
T2 sequence (biotin-labeled with EZ-LINK NHS-PEG4-Biotin, looked up): T1 sequence (looked up)

B1: H4H9660P (antibody, from another filing, IgG4, V domains shown)
VH: EVQLVESGGGLVQPGGSLRLSCAASGITLSSYGMSWVRQAPGKGLEWVASIFGSGGGPYYADSVKGRFTMSRDNSKNTLYLQMNSLRAEDTAVYYCAKDRYSGSYYGGFDYWGRGTLVTVSS
VL: DIQMTQSPSSVSASVGDRVTITCRASQGITSWLAWYQQKPGKAPTLLIYAASSLQTGVPSRFSGSGSGTDFTLTISSLQPEHFATYYCQQANSFPPTFGGGTKVEIK
B2: H4H9667P (antibody, from another filing, IgG4, V domains shown)
VH: EVQLVESGGGLVQPGGSLRLSCAASGFTFSTYSMHWVRQAPGKGLEYVSTINNNGDTTYYADSVKGRFTISRDNSKNTLYLQLGSLRPEDMAVYYCARQTYTSSWYGGFDSWGQGTLVTVSS
VL: B1 VL with T45K, S53N, T56S, S76T, H82D, F94L, P96F, G100P, E105D
B3: cynomolgus monkey N-terminal 6-His-tagged and C-terminal Avi-tagged IL-33 (S112-T270) (ligand)
chain: MHHHHHHGENLYFQGSITGISPITESLASLSTYNDQSITFALEDESYEIYVEDLKKDKKKDKVLLSYYESQHPSSESGDGVDGKMLMVTLSPTKDFWLQANNKEHSVELHKCEKPLPDQAFFVLHNRSFNCVSFECKTDPGVFIGVKDNHLALIKVDYSENLGSENILFKLSETGNSGGGLNDIFEAQKIEWHE

Tests used:
[1] = biological target: T1, human IL-33 (R&D Systems, #3625-IL-010/CF) (human); assay: SPR Biacore T200, 37 C
[2] = biological target: T1, human IL-33 (R&D Systems, #3625-IL-010/CF) (human)
[3] = biological target: T2, biotinylated human IL-33 (human); assay: competitive ELISA, biotin-huIL-33 to coated hST2-Fc
[4] = biological target: T1, human IL-33 (R&D Systems, #3625-IL-010/CF) (human); remark: listed apart in the source
[5] = biological target: T1, human IL-33 (R&D Systems, #3625-IL-010/CF) (human); remark: listed apart in the source
[6] = biological target: T1, human IL-33 (R&D Systems, #3625-IL-010/CF) (human); remark: listed apart in the source
[7] = biological target: T1, human IL-33 (R&D Systems, #3625-IL-010/CF) (human); assay: SPR Biacore T200, 25 C
[8] = biological target: T1, human IL-33 (R&D Systems, #3625-IL-010/CF) (human); remark: listed apart in the source
[9] = biological target: T1, human IL-33 (R&D Systems, #3625-IL-010/CF) (human); remark: listed apart in the source
[10] = biological target: T1, human IL-33 (R&D Systems, #3625-IL-010/CF) (human); remark: listed apart in the source
[11] = biological target: human ST2L on HEK-BLUE IL-33/IL-1beta cells (human) (UniProt Q01638)
[12] = biological target: human ST2L on HEK-BLUE IL-33/IL-1beta cells (human) (UniProt Q01638); remark: listed apart in the source

Sequence of human ST2L on HEK-BLUE IL-33/IL-1beta cells (human) (Q01638 19-556 limits assumed): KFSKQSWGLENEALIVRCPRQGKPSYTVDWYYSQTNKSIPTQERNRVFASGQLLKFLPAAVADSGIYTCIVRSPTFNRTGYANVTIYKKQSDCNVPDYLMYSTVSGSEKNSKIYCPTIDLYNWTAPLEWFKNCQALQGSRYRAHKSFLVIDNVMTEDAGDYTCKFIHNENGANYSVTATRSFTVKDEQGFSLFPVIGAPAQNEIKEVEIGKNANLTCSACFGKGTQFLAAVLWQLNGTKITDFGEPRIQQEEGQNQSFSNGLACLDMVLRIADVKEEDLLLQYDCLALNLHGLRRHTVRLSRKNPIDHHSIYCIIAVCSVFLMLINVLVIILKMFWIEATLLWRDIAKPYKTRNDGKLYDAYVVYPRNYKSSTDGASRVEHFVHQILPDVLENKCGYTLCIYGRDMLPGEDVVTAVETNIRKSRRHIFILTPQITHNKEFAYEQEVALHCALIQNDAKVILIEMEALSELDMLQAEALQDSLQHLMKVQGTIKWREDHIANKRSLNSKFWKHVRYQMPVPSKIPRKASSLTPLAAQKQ

Binder | Kd [1] | koff [1] | kon [1] | t1/2 [1] | IC50 (read off the curve) [2] | IC50 [3] | Maximum Blocking [3] | IC50, IL-33-induced phospho-p38 in primary human basophils, 500 pM hIL-33 [4] | IC50; SEAP reporter (OD 620), HEK-BLUE IL-33/IL-1beta cells, 10 pM hIL-33 [5] | Ph-p38 MFI at 0.4 nM Ab (500 pM human IL-33, primary basophils) [6] | Kd [7] | koff [7] | kon [7] | t1/2 [7] | IC50; IFN-gamma ELISA, primary human NK cells, 260 pM hIL-33 + IL-12 [8] | Ph-p38 MFI at 2 nM Ab (500 pM human IL-33, primary basophils) [9] | IC50 (read off the curve) [10] | EC50 (SEAP reporter OD 620, HEK-BLUE IL-33/IL-1beta cells) [11] | EC50 (SEAP reporter OD 620, HEK-BLUE IL-33/IL-1beta cells) [12]
B1 | 0.302 nM | 0.000413 s⁻¹ | 1.37e+06 M⁻¹ s⁻¹ | 28 min | 0.5 pM | 0.092 nM | 78% | 4.8e-13 M | 3.8e-11 M | 105 MFI | 0.67 nM | 0.00039 s⁻¹ | 581000 M⁻¹ s⁻¹ | 30 min | 2.4e-10 M | 29 MFI | – | – | –
B2 | 0.411 nM | 0.000497 s⁻¹ | 1.21e+06 M⁻¹ s⁻¹ | 23 min | – | 0.41 nM | 77% | 2e-12 M | 1e-09 M | 111 MFI | 0.525 nM | 0.000328 s⁻¹ | 626000 M⁻¹ s⁻¹ | 35 min | – | 68 MFI | 2 pM | – | –
B3 | – | – | – | – | – | – | – | – | – | – | – | – | – | – | – | – | – | 21 pM | 8.7 pM
